Laboratory results taken from the supplement of paper PMC10065799, “High-throughput profiling of sequence recognition by tyrosine kinases and SH2 domains using bacterial peptide display” (eLife, 2023).

How the values were obtained:
AncSZ = test: phosphorylation enrichment, bacterial display (enrichment ratio); higher = better substrate or ligand; peptides without Tyr show the background
EPHB1 = EPHB1 (UniProt P54762); test: as above
EPHB2 = EPHB2 (UniProt P29323); test: as above
FGFR1 = FGFR1 (UniProt P11362); test: as above
FGFR3 = FGFR3 (UniProt P22607); test: as above
Fer (mouse) = test: as above
Fes = Fes (UniProt P07332); test: as above
Fyn = Fyn (UniProt P06241); test: as above
Hck = Hck (UniProt P08631); test: as above
Jak2 = Jak2 (UniProt O60674); test: as above
MERTK = MERTK (UniProt Q12866); test: as above
c-Abl (mouse) = test: as above
c-Src = test: as above
Grb2 SH2 = Grb2 SH2 (UniProt P62993); test: SH2 binding enrichment of the phosphorylated peptide, bacterial display (enrichment ratio); higher = better substrate or ligand; peptides without Tyr show the background
SHP2-C SH2 = test: as above
c-Src SH2 = test: as above
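For SH2 binding enrichment of the phosphorylated peptide, bacterial display in this document: peptide library displayed on the E. coli surface as eCPX fusions, selected cells deep-sequenced, score is each peptide's frequency after selection divided by its frequency in the input.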
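For phosphorylation enrichment, bacterial display in this document: 11-residue human phosphosite peptides and single-mutation variants displayed on the E. coli surface, counted by deep sequencing, each peptide's frequency after selection divided by its frequency in the unselected input library; frequency after pTyr selection over input frequency; kinase dosed for 20-30% of maximal phosphorylation in three min.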

Sequence of Jak2 (O60674 whole entry, looked up): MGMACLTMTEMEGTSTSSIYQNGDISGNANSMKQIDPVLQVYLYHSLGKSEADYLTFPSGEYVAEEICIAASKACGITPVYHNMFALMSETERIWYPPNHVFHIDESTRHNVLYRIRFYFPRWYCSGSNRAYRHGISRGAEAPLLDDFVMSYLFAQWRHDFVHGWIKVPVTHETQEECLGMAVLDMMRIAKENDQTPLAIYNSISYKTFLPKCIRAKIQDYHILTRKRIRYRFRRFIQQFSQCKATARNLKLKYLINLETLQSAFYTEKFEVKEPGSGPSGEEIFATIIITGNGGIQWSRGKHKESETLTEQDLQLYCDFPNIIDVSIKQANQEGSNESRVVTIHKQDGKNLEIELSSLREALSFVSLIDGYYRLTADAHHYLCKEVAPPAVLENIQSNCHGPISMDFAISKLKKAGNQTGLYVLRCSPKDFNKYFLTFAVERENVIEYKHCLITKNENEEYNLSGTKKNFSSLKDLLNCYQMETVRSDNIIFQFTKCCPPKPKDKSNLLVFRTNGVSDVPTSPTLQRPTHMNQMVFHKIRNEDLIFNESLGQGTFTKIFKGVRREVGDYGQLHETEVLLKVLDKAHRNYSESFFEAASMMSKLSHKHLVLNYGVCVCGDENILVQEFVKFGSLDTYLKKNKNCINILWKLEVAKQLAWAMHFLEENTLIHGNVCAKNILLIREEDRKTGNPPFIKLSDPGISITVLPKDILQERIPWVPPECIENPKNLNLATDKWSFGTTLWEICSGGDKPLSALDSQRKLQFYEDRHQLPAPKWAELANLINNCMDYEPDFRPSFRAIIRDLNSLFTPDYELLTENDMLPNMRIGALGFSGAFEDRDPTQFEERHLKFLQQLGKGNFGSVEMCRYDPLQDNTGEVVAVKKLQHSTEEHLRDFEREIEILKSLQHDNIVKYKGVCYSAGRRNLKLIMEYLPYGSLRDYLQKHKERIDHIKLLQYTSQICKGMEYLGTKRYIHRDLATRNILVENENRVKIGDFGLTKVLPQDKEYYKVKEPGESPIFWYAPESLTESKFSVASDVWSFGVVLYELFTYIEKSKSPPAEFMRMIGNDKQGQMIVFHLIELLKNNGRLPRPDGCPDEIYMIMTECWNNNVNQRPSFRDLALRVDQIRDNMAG
Sequence of FGFR1 (P11362 whole entry, looked up): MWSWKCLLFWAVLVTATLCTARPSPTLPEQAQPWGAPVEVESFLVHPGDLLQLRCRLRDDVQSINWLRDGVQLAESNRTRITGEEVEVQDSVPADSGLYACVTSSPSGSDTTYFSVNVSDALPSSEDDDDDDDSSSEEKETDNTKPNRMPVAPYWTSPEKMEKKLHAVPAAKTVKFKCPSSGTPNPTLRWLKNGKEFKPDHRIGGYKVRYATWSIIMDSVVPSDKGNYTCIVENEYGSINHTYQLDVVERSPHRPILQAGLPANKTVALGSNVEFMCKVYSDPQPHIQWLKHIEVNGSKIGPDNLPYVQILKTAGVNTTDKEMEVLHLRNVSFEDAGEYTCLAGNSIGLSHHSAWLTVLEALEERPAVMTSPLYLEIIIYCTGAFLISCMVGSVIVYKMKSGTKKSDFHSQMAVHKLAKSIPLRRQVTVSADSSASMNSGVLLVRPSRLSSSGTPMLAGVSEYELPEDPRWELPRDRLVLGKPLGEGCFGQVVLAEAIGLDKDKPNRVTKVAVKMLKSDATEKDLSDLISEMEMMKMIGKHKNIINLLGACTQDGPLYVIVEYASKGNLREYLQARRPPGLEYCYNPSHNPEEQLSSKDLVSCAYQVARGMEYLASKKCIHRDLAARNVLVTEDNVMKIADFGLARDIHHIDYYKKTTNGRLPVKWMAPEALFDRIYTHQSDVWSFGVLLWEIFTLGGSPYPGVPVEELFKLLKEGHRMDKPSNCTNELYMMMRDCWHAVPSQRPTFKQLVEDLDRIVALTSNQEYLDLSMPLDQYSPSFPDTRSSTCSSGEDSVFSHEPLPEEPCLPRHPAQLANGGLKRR
Sequence of EPHB2 (P29323 whole entry, looked up): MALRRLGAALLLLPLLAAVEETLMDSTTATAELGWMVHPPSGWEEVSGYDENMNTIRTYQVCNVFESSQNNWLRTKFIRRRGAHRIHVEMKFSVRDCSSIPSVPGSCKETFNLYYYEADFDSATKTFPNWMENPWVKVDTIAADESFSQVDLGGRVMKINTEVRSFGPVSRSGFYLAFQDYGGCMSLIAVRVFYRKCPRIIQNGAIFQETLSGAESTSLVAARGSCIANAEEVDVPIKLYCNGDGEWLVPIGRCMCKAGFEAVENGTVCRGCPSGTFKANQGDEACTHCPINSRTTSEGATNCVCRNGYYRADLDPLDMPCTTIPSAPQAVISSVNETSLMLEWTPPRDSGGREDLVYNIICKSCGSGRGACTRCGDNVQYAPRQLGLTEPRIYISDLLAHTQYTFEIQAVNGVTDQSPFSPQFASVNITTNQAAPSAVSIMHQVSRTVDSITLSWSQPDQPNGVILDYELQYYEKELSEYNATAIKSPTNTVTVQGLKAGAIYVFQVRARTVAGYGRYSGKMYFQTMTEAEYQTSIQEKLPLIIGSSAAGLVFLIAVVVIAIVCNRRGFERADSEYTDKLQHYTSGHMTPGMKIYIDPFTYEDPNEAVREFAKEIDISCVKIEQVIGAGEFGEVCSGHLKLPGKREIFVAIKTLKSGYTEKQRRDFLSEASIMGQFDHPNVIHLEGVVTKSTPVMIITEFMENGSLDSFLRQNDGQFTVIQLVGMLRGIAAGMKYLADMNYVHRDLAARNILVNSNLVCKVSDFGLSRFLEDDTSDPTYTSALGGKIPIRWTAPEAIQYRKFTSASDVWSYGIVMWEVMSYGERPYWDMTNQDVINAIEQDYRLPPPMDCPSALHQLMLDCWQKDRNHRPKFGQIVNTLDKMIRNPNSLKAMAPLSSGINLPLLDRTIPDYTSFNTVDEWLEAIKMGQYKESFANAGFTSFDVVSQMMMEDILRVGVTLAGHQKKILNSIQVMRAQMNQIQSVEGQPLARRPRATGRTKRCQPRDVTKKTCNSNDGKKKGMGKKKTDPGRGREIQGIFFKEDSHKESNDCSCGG
Sequence of EPHB1 (P54762 whole entry, looked up): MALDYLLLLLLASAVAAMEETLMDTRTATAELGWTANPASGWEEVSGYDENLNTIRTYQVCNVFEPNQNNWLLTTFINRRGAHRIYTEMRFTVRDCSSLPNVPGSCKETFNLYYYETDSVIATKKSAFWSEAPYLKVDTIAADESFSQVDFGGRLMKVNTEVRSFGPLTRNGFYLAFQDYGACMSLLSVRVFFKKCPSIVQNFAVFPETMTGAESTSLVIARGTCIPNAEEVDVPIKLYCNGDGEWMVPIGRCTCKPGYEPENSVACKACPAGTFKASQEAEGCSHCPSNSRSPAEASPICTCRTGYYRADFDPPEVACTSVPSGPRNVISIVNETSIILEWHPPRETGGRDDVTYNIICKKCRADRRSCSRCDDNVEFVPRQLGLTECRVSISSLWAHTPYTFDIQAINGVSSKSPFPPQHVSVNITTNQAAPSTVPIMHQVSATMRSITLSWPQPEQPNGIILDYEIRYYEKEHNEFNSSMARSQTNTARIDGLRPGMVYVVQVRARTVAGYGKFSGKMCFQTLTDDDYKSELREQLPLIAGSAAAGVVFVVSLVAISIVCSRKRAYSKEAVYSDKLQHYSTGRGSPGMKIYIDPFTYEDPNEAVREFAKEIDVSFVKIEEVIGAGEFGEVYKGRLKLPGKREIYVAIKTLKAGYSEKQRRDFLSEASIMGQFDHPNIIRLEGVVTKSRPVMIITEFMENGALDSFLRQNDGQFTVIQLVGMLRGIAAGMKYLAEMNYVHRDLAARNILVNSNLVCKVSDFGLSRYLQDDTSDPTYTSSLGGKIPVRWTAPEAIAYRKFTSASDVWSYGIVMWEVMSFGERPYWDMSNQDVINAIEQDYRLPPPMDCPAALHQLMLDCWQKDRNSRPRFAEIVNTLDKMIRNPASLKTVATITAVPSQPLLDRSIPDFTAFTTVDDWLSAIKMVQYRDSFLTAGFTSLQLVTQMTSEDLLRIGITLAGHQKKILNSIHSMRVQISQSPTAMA
Sequence of Grb2 SH2 (P62993 whole entry, looked up): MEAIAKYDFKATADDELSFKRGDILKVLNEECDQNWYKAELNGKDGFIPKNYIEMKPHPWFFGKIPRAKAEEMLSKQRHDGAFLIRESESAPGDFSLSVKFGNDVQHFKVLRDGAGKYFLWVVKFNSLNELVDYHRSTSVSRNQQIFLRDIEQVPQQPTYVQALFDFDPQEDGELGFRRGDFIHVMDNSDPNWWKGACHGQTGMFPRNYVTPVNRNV
Sequence of Fes (P07332 whole entry, looked up): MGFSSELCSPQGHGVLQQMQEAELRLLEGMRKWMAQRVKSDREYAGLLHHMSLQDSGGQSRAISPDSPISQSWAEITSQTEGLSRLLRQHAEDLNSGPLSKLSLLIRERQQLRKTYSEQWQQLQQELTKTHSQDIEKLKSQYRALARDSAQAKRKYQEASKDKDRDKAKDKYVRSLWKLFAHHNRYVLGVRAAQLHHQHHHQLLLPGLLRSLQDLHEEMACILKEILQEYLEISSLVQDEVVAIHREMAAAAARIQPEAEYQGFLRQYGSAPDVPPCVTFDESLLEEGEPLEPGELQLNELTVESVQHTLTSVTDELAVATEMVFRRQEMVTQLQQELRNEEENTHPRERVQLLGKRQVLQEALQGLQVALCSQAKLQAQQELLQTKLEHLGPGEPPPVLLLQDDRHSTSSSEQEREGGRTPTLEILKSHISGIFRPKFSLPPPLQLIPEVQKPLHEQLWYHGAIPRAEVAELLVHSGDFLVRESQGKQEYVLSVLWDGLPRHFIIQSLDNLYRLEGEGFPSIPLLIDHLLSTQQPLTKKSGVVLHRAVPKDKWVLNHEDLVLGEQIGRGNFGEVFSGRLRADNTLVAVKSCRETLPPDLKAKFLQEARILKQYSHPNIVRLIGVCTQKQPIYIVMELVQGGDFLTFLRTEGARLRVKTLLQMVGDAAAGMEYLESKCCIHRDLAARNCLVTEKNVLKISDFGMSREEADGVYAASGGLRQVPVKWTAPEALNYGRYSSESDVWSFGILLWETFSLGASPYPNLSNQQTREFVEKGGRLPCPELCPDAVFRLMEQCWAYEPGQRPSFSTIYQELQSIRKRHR

Sequence	phosphorylation enrichment (AncSZ)	phosphorylation enrichment (EPHB1)	phosphorylation enrichment (EPHB2)	phosphorylation enrichment (FGFR1)	phosphorylation enrichment (FGFR3)	phosphorylation enrichment (Fer (mouse))	phosphorylation enrichment (Fes)	phosphorylation enrichment (Fyn)	phosphorylation enrichment (Hck)	phosphorylation enrichment (Jak2)	phosphorylation enrichment (MERTK)	phosphorylation enrichment (c-Abl (mouse))	phosphorylation enrichment (c-Src)	SH2 binding enrichment (Grb2 SH2)	SH2 binding enrichment (SHP2-C SH2)	SH2 binding enrichment (c-Src SH2)
NTCNRYCRDEI [ITGB3_Y660]	0.794	0.567	0.427	0.492	0.486	0.43	0.777	0.485	0.407	0.714	0.535	0.596	0.5	0.938	0.658	0.808
NTTIHYNYMCN [TP53_Y234_C229N]	1.08	0.747	0.692	0.767	0.803	0.566	1.06	0.55	0.579	0.817	0.574	0.707	0.496	0.931	0.848	2.42
NTVDYYDLYGG [PTPN11_Y63_G60V]	2.56	4.4	3.7	15.3	13.1	1.19	1.21	6.7	5.68	1.47	1.35	0.788	4.25	0.985	0.692	0.801
NVTGHYIPPFH [PPA2_Y59_S61P]	0.518	0.455	0.393	0.396	0.463	0.395	0.679	0.445	0.418	0.498	0.659	0.735	0.443	0.779	0.994	0.538
NYADPYRQLQY [CTNND2_Y503]	0.776	9.61	10.8	3.72	1.99	0.464	0.747	0.43	0.615	0.672	2.57	0.687	0.551	0.892	1.12	1.5
PDGREYIFVDP [PDGFRA_Y572_H570R_YF]	2.12	0.62	0.532	1.86	1.2	0.615	1.08	0.649	0.647	1.02	0.49	0.488	0.431	0.789	0.618	0.543
PDNKPYIFKVF [PIK3AP1_Y553_E551K]	1.37	0.752	0.919	0.681	0.831	0.728	1.75	0.665	0.619	1.03	0.428	0.79	0.526	1.08	1.03	0.568
PDSVDYPKKGF [CTSK_Y121_R122P_YF]	1.75	1.48	1.13	1.12	1.05	1.52	1.78	1.17	1.15	1.97	1.31	2.12	1.52	0.872	0.486	0.531
PELIDYGKLRK [ACTN1_Y193]	0.86	0.441	0.668	0.714	0.544	0.465	0.8	0.587	0.446	0.368	0.62	0.537	0.404	0.581	0.6	0.478
PEPHIYAVADV [MYO9A_Y216_L211P]	1.11	1.11	2.18	0.667	1.01	3.02	1.55	3.21	3.16	0.695	2.97	25	3.72	0.909	0.654	4.08
PHMQTYEVDHN [SDHB_Y61_L65H]	1.31	0.758	3.83	0.676	0.783	0.571	1.01	1.03	0.506	0.94	0.425	0.864	1.04	1.09	0.604	0.591
PIAPVYAASMV [ACAT1_Y331]	0.837	2.45	2.19	0.744	0.548	8.12	1.07	14.3	13.5	1.34	5.19	48.5	10.5	0.882	0.699	0.506
PLDGEYFTLHI [TP53_Y327_Q331H]	2.49	0.808	0.97	5.77	4.7	0.816	1.68	2.35	1.51	4.23	0.752	1.93	2.97	0.852	0.594	0.365
PLDGEYFTLQI [TP53_Y327]	4.14	1.32	1.36	9.82	7.34	1.19	1.47	4.48	2.55	4.17	0.663	1.57	3.81	0.686	0.718	0.344
PLDGEYSTLQI [TP53_Y327_F328S]	2.13	1.27	1.17	1.77	1.18	3.56	1.53	2.2	3.08	1.33	0.75	1.33	2.97	0.399	0.272	0.433
PLGVLYKVKVF [PTS_Y128_V124L_YF]	1.54	0.922	0.824	0.562	0.862	0.692	1.64	0.801	0.553	1.23	0.446	0.973	0.311	0.88	0.896	0.494
PLQHVYKIGGI [EEF1A2_Y254_D252H]	0.964	0.73	0.71	0.649	0.733	0.696	1.06	0.643	0.865	1.52	0.739	0.766	0.959	0.941	0.588	0.517

Sequence	phosphorylation enrichment (AncSZ)	phosphorylation enrichment (EPHB1)	phosphorylation enrichment (EPHB2)	phosphorylation enrichment (FGFR1)	phosphorylation enrichment (FGFR3)	phosphorylation enrichment (Fer (mouse))	phosphorylation enrichment (Fes)	phosphorylation enrichment (Fyn)	phosphorylation enrichment (Hck)	phosphorylation enrichment (Jak2)	phosphorylation enrichment (MERTK)	phosphorylation enrichment (c-Abl (mouse))	phosphorylation enrichment (c-Src)	SH2 binding enrichment (Grb2 SH2)	SH2 binding enrichment (SHP2-C SH2)	SH2 binding enrichment (c-Src SH2)
PLQKTYNYNVL [SLC4A1_Y553]	0.872	0.66	0.689	0.711	0.691	0.628	1.08	0.495	0.596	0.986	0.43	0.881	0.565	0.708	0.766	1.12
PMDTYYDSTRG [DYNC2H1_Y2231]	1.5	1.28	1.37	3.15	2.3	0.799	1.31	1.43	1.86	1.14	0.827	1.15	1.91	0.666	0.44	0.742
PMWHPYKADVT [TP53TG5_Y255_V257A]	0.851	0.657	0.572	0.309	0.6	0.588	1.12	0.565	0.615	0.911	0.428	0.94	0.756	0.791	1.04	0.484
PPSGEYFGQCG [TRIP6_Y275]	1.58	1.39	0.953	1.23	1.06	0.824	1.37	0.552	0.764	1.52	0.573	1.58	0.771	1.19	0.829	0.791
PQQLWYTHEKK [UBTF_Y207]	0.652	0.58	0.327	0.516	0.481	0.339	0.792	0.409	0.496	0.802	0.361	0.499	0.473	1.2	0.812	0.833
PRAEWYRDDVL [MYOM2_Y317]	1.31	0.959	0.725	0.507	0.818	0.767	1.46	0.572	0.586	1.11	0.681	0.879	0.546	0.802	0.637	0.585
PSDSGYSFETI [MAP1B_Y1921_YF]	1.05	0.639	1.1	0.633	1.05	0.608	1.25	0.703	0.635	1.25	0.641	0.763	0.405	0.971	0.874	2.13
PSDSGYSYETI [MAP1B_Y1921]	1.35	0.596	0.467	0.627	0.688	0.642	1.38	0.599	0.577	0.848	0.583	0.664	0.454	1.79	0.523	7.7
PSPTRYSLSPS [RANBP2_Y785]	0.976	0.536	0.856	0.525	0.577	0.436	0.886	0.537	0.515	0.439	0.56	1.5	0.597	0.759	0.454	0.438
PSQRCYVYYYS [PTEN_Y174_R173C]	2.35	0.931	0.556	1.41	1.8	0.807	2.28	1.09	1.03	2.59	2.02	1.77	3.16	0.825	0.645	0.286
PTEAQYRFIYM [PTPN11_Y511_Q506P]	2.44	1.08	0.777	3.16	2.82	1.54	2.2	1.04	1.35	2.37	1.18	1.98	1.75	0.528	0.673	0.335
PTTKSYFPHFD [HBA1_Y43_T42S]	1.13	0.746	0.442	1.38	0.77	0.497	1.42	0.431	0.752	0.558	0.664	0.501	0.498	1.08	0.812	0.593
PTTKTYFPHFH [HBA1_Y43_D48H]	0.721	0.457	0.399	0.602	0.559	0.496	1.14	0.598	0.688	0.951	0.605	0.676	0.655	0.971	0.981	0.761
PTTKTYFRHFD [HBA1_Y43_P45R]	0.556	0.546	0.409	0.65	0.66	0.312	0.998	0.393	0.539	0.959	0.466	0.667	0.545	0.964	1.08	0.457
PTTKTYLPHFD [HBA1_Y43_F44L]	0.839	0.362	0.489	0.508	0.58	0.386	0.77	0.622	0.389	0.456	0.494	0.307	0.458	0.901	0.756	0.483
PVKDGYQMAQP [CSF1R_Y873_L868P]	0.682	0.451	0.474	1.05	0.694	0.591	1.11	0.433	0.833	0.521	0.393	0.278	0.574	0.838	0.673	0.527
